The target of the experiment is mouse glycophorin-A on mouse erythrocytes (mouse) (UniProt P14220). The experiment is described as follows: in vivo, flow cytometry of circulating erythrocytes after intravenous administration. (Flow cytometry measures light scatter and fluorescence of single cells or particles in a stream.)

For “8-arm PEG-ERY1 (8-arm PEG-ERY1-ALEXAFLUOR647)”, the cell-surface half-life was found to be 2.2 h.
